Earlier results, collected in publication PMC4599702.

How the values were obtained:
p300 KIX (Homo sapiens) = p300 KIX (Homo sapiens) (UniProt Q09472); assay: microscale thermophoresis
CBP KIX (Homo sapiens) = CBP KIX (Homo sapiens) (UniProt Q92793)
Chain of UniProt Q92793 (Q92793 584-669): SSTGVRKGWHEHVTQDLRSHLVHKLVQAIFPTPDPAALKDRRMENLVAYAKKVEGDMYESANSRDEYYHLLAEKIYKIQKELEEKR

Chain of UniProt Q09472 (Q09472 563-648): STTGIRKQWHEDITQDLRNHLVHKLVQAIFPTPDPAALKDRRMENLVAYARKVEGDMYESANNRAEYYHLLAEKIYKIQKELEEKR

Myb (from UniProt P10242)
Kd (p300 KIX (Homo sapiens)): 2.5 µM
Kd (CBP KIX (Homo sapiens)): 0.65 µM
